{"source": "patent US20190248875A1", "target": "envelope protein of DENV type 2 (DENV2), strain NGC M29095 (dengue virus type 2 (strain NGC)) (UniProt P14340)", "assay": "cell-based or functional assay"}
{"substance": "4G2 antibodies against the envelope protein of Flavivirus (antibody)", "values": [{"measurement": "fold of infection enhancement of DENV2 in K562 cells (ADE assay)", "value": 60, "unit": "fold"}]}
